According to the supplement of paper PMC7877785:
± gives the uncertainty stated by the source.

Assay: self-splicing fitness, log relative to wild type (ln ratio); higher = more splicing; Tetrahymena group I intron in knt gene, E. coli kanamycin selection, DiMSum; sequences stand for … in CUCUCU…GGAGGGAAAAGUUAUCAGGCAUGCACCUGGUAGCUAGUCUUUAAACCAAUAGAUUGCAUCGGUUUAAAAGGCAAGACCGUCAAAUUGCGGGAAAGGGGUCAACAGCCGUUCAGUACCAAGUCUCAGGGGAAACUUUGAGAUGGCCUUGCAAAGGGUAUGGUAAUAAGCUGACGGACAUGGUCCUAACCACGCAGCCAAGUCCUAAGUCAACAGAUCUUCUGUUGAUAUGGAUGCAGUUCACAGACUAAAUGUCGGUCGGGGAAGAUGUAUUCUUCUCAUAAGAUAUAGUCGGACCUCUCCUUAAUGGGAGCUAGCGGAUGAAGUGAUGCAACACUGGAGCCGCUGGGAACUAAUUUGUAUGCGAAAGUAUAUUGAUUAGUUUUGGAGUACUCGUGGUCG
Procedure, shortened: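 Library with all eight P1ex-region intron nucleotides randomised, intron inside the knt kanamycin-resistance gene on pET-22b(+), in E. coli BL21(DE3). Cells grew overnight at 37°C or 30°C on LB agar with or without 25 μg/mL kanamycin (plus 100 μg/mL carbenicillin, 50 μM IPTG, 0.2% rhamnose), in six replicate transformations. Pooled colonies were amplicon-sequenced on Illumina HiSeq 2500. DiMSum fitness is the error-weighted combination of wild-type-normalised replicate fold changes, kanamycin versus none.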

Sequence | self-splicing fitness (ln) (30 °C) | self-splicing fitness (ln) (37 °C)
CGGUAGCAAUAUUACGUCGG | -0.5 ± 0.095 | 0.638 ± 0.12
GAAGAGCAAUAUUACGGGCU | -3.17 ± 0.17 | -3.07 ± 0.28
AGAAAGCAAUAUUACGACAC | -0.194 ± 0.11 | -0.75 ± 0.13
AUCCAGCAAUAUUACGGGUU | -3.75 ± 0.15 | -2.89 ± 0.21
GACAAGCAAUAUUACGUAUC | -3.31 ± 0.15 | -0.876 ± 0.14
AUUAAGCAAUAUUACGCUUU | -2.38 ± 0.24 | -1.24 ± 0.32
UCUUAGCAAUAUUACGUUUC | -3.68 ± 0.24 | -2.8 ± 0.29
UGUAAGCAAUAUUACGUUCU | -0.123 ± 0.085 | -0.0225 ± 0.1
GGAUAGCAAUAUUACGGAAU | -2.48 ± 0.17 | -2.33 ± 0.24
GGACAGCAAUAUUACGUACU | -1.22 ± 0.097 | -0.317 ± 0.1
AGCCAGCAAUAUUACGUGCA | -0.689 ± 0.068 | 0.0293 ± 0.087
CCAUAGCAAUAUUACGAUUG | -1.17 ± 0.07 | -0.642 ± 0.083
CUCGAGCAAUAUUACGGUGG | -2.25 ± 0.13 | -1.75 ± 0.17
AACUAGCAAUAUUACGGCAG | -1.09 ± 0.094 | -0.755 ± 0.095
AGUAAGCAAUAUUACGUGAG | -3.88 ± 0.15 | -1.07 ± 0.11
CGAUAGCAAUAUUACGCGCU | -0.899 ± 0.12 | -1.02 ± 0.12
GGCGAGCAAUAUUACGCACG | -2.49 ± 0.28 | -2.71 ± 0.36
GAGAAGCAAUAUUACGUCAU | -2.57 ± 0.097 | -0.577 ± 0.089
CAACAGCAAUAUUACGCAGC | -4.4 ± 0.25 | -2.75 ± 0.29
GACGAGCAAUAUUACGGGCU | -3.61 ± 0.2 | -2.21 ± 0.19
UAACAGCAAUAUUACGCCUG | -0.264 ± 0.085 | 0.182 ± 0.11
UAGAAGCAAUAUUACGAGGA | -3.7 ± 0.2 | -2.06 ± 0.15
AAGUAGCAAUAUUACGUGCG | -1.48 ± 0.12 | -0.495 ± 0.15
AGCAAGCAAUAUUACGUUAC | -3.47 ± 0.23 | -2.38 ± 0.21
GACCAGCAAUAUUACGGCUU | -0.0255 ± 0.055 | -0.293 ± 0.07

Sequence | self-splicing fitness (ln) (30 °C) | self-splicing fitness (ln) (37 °C)
AGUAAGCAAUAUUACGCCCA | -1.19 ± 0.37 | 
AUGGAGCAAUAUUACGGCCU | -1.32 ± 0.19 | -0.862 ± 0.24
GCCAAGCAAUAUUACGAGAC | -2.73 ± 0.18 | -0.746 ± 0.12
GCGCAGCAAUAUUACGCAUU | -1.4 ± 0.077 | -0.154 ± 0.1
AGAAAGCAAUAUUACGGAAC | -3.04 ± 0.25 | -1.84 ± 0.29
CACCAGCAAUAUUACGAUAU | -3.22 ± 0.17 | -2.46 ± 0.2
GUUGAGCAAUAUUACGACCU | -2.63 ± 0.16 | -1.56 ± 0.17
AUCUAGCAAUAUUACGUGCG | -1.47 ± 0.21 | -0.647 ± 0.17
AAGAAGCAAUAUUACGUCAC | -3.46 ± 0.21 | -3 ± 0.28
GUAGAGCAAUAUUACGCCCC | -1.39 ± 0.19 | -0.63 ± 0.28
UCUUAGCAAUAUUACGCCUG | -2.25 ± 0.24 | -1.51 ± 0.27
AGUCAGCAAUAUUACGGCGU | 0.0847 ± 0.073 | 0.74 ± 0.096
GACGAGCAAUAUUACGGCGG | -2.65 ± 0.33 | -2.42 ± 0.29
CAUUAGCAAUAUUACGAAUA | -2.12 ± 0.14 | -0.64 ± 0.13
UGUGAGCAAUAUUACGUGCG | -1.36 ± 0.11 | -1.06 ± 0.14
GACCAGCAAUAUUACGAUUG | -2.1 ± 0.073 | -1.08 ± 0.084
GACUAGCAAUAUUACGAAAC | -1.3 ± 0.12 | -0.114 ± 0.13
ACGCAGCAAUAUUACGACUC | -0.833 ± 0.08 | 0.365 ± 0.096
UCUAAGCAAUAUUACGACGC | -0.443 ± 0.12 | -0.398 ± 0.21
UUCUAGCAAUAUUACGAAGG | -2.9 ± 0.19 | -2.38 ± 0.39
UAGUAGCAAUAUUACGACUG | 0.526 ± 0.14 | -0.333 ± 0.17
UCGCAGCAAUAUUACGAAAU | -3.62 ± 0.21 | -2.41 ± 0.24
UCUAAGCAAUAUUACGCUAA | -3.04 ± 0.19 | -1.84 ± 0.18
AUCCAGCAAUAUUACGAGAG | -1.45 ± 0.098 | -1.05 ± 0.1
GUGGAGCAAUAUUACGCGAU | -2.82 ± 0.32 | -2.31 ± 0.39

Sequence | self-splicing fitness (ln) (30 °C) | self-splicing fitness (ln) (37 °C)
UCAUAGCAAUAUUACGCCAU | -3.49 ± 0.36 | -1.49 ± 0.33
GACUAGCAAUAUUACGAAAA | -2.41 ± 0.25 | -0.685 ± 0.15
CACAAGCAAUAUUACGACUC | -1.97 ± 0.11 | -0.998 ± 0.12
GACUAGCAAUAUUACGGCCG | -0.632 ± 0.13 | -0.578 ± 0.16
GUAUAGCAAUAUUACGAUCU | -1.16 ± 0.19 | 0.209 ± 0.21
CAUCAGCAAUAUUACGUGUU | -2.31 ± 0.12 | -2.79 ± 0.24
GGAUAGCAAUAUUACGUCGA | -0.726 ± 0.1 | -0.0349 ± 0.098
AGGCAGCAAUAUUACGGGUC | -2.67 ± 0.17 | -3.01 ± 0.22
CAUGAGCAAUAUUACGACUU | -3.95 ± 0.32 | -3.81 ± 0.36
AGUAAGCAAUAUUACGACGG | -3.42 ± 0.27 | -1.94 ± 0.2
UGAGAGCAAUAUUACGGUAU | -3.07 ± 0.2 | -1.53 ± 0.3
CUCUAGCAAUAUUACGUCGU | -3.66 ± 0.26 | -4.15 ± 0.36
CGGCAGCAAUAUUACGUAGC | -4.16 ± 0.36 | -3.03 ± 0.24
CCUUAGCAAUAUUACGCGAU |  | -3.16 ± 0.22
CUGCAGCAAUAUUACGCUCA |  | -2.21 ± 0.35
AGGAAGCAAUAUUACGCAGU | -3.41 ± 0.15 | -0.746 ± 0.095
CCGUAGCAAUAUUACGUCUC | -3.43 ± 0.21 | -3.67 ± 0.31
CUAGAGCAAUAUUACGCCGU | -2.86 ± 0.32 | -1.99 ± 0.43
CGUUAGCAAUAUUACGGGAU |  | -2.25 ± 0.26
CGCAAGCAAUAUUACGGGAU | -4.29 ± 0.26 | -2.95 ± 0.23
AUGAAGCAAUAUUACGUUGG | -2.72 ± 0.16 | -1.58 ± 0.2
GCAAAGCAAUAUUACGUGCG | -0.856 ± 0.067 | -0.144 ± 0.095
CAGAAGCAAUAUUACGCACC | -3.18 ± 0.41 | -2.1 ± 0.46
UUGGAGCAAUAUUACGGGAG | -4.02 ± 0.39 | -2.62 ± 0.31
AGUAAGCAAUAUUACGUAAC | -2.48 ± 0.23 | 

Sequence | self-splicing fitness (ln) (30 °C) | self-splicing fitness (ln) (37 °C)
CAAAAGCAAUAUUACGGGCA | -2.88 ± 0.16 | -1.99 ± 0.14
GCGAAGCAAUAUUACGAGUU | -3.19 ± 0.2 | -2.16 ± 0.28
UUGGAGCAAUAUUACGAUUA | -0.16 ± 0.41 | -1.3 ± 0.39
AGUAAGCAAUAUUACGGUUG | -3.09 ± 0.23 | -2.51 ± 0.25
CCGGAGCAAUAUUACGAAAC | -1.5 ± 0.23 | -0.933 ± 0.2
GCUUAGCAAUAUUACGUCCG | -1.68 ± 0.19 | -1.43 ± 0.24
GCCUAGCAAUAUUACGCAGU | -1.77 ± 0.13 | -0.206 ± 0.12
CAUUAGCAAUAUUACGUGCU | -4.27 ± 0.24 | -2.36 ± 0.27
CGAGAGCAAUAUUACGCCUU | -3.73 ± 0.43 | -1.07 ± 0.29
GAACAGCAAUAUUACGUGUU | -3.97 ± 0.17 | -2.61 ± 0.16
CAAGAGCAAUAUUACGUGCG | -1.17 ± 0.074 | 0.135 ± 0.09
AUGGAGCAAUAUUACGAACG | -2.21 ± 0.25 | -2.35 ± 0.5
CGCCAGCAAUAUUACGCCUU | -3.11 ± 0.27 | -2.29 ± 0.26
UCGUAGCAAUAUUACGUGCA | -1.18 ± 0.094 | -1.14 ± 0.12
ACAAAGCAAUAUUACGCCAU | -3.96 ± 0.2 | -2.24 ± 0.14
UCACAGCAAUAUUACGAGGC | -2.83 ± 0.14 | -2.62 ± 0.16
UUUUAGCAAUAUUACGGAAG | -1.3 ± 0.17 | -0.731 ± 0.19
GGGCAGCAAUAUUACGAACU | -0.431 ± 0.065 | -0.278 ± 0.09
GGACAGCAAUAUUACGUGUG | -1.55 ± 0.05 | -0.79 ± 0.066
CGUGAGCAAUAUUACGAAUU |  | -0.866 ± 0.17
UAUUAGCAAUAUUACGCGUG | -0.538 ± 0.055 | -0.463 ± 0.065
CCCCAGCAAUAUUACGCGCU | -3.31 ± 0.12 | -2.45 ± 0.21
